Publication PMC5035230 (Biochimica et biophysica acta, 2016)

B1: P453L-hE3 (pathogenic variant of human dihydrolipoamide dehydrogenase) (enzyme, UniProt P09622 36-509, looked up)
chain: ADQPIDADVTVIGSGPGGYVAAIKAAQLGFKTVCIEKNETLGGTCLNVGCIPSKALLNNSHYYHMAHGKDFASRGIEMSEVRLNLDKMMEQKSTAVKALTGGIAHLFKQNKVVHVNGYGKITGKNQVTATKADGGTQVIDTKNILIATGSEVTPFPGITIDEDTIVSSTGALSLKKVPEKMVVIGAGVIGVELGSVWQRLGADVTAVEFLGHVGGVGIDMEISKNFQRILQKQGFKFKLNTKVTGATKKSDGKIDVSIEAASGGKAEVITCDVLLVCIGRRPFTKNLGLEELGIELDPRGRIPVNTRFQTKIPNIYAIGDVVAGPMLAHKAEDEGIICVEGMAGGAVHIDYNCVPSVIYTHPEVAWVGKSEEQLKEEGIEYKVGKFPFAANSRAKTNADTDGMVKILGQKSTDRVLGAHILGPGAGEMVNEAALALEYGASCEDIARVCHAHLTLSEAFREANLAASFGKSINF
B2: E340K-hE3 (pathogenic variant of human dihydrolipoamide dehydrogenase) (enzyme, UniProt P09622 36-509, looked up)
chain: ADQPIDADVTVIGSGPGGYVAAIKAAQLGFKTVCIEKNETLGGTCLNVGCIPSKALLNNSHYYHMAHGKDFASRGIEMSEVRLNLDKMMEQKSTAVKALTGGIAHLFKQNKVVHVNGYGKITGKNQVTATKADGGTQVIDTKNILIATGSEVTPFPGITIDEDTIVSSTGALSLKKVPEKMVVIGAGVIGVELGSVWQRLGADVTAVEFLGHVGGVGIDMEISKNFQRILQKQGFKFKLNTKVTGATKKSDGKIDVSIEAASGGKAEVITCDVLLVCIGRRPFTKNLGLEELGIELDPRGRIPVNTRFQTKIPNIYAIGDVVAGPMLAHKAEDEGIICVKGMAGGAVHIDYNCVPSVIYTHPEVAWVGKSEEQLKEEGIEYKVGKFPFAANSRAKTNADTDGMVKILGQKSTDRVLGAHILGPGAGEMVNEAALALEYGASCEDIARVCHAHPTLSEAFREANLAASFGKSINF
B3: G194C-hE3 (pathogenic variant of human dihydrolipoamide dehydrogenase) (enzyme, UniProt P09622 36-509, looked up)
chain: ADQPIDADVTVIGSGPGGYVAAIKAAQLGFKTVCIEKNETLGGTCLNVGCIPSKALLNNSHYYHMAHGKDFASRGIEMSEVRLNLDKMMEQKSTAVKALTGGIAHLFKQNKVVHVNGYGKITGKNQVTATKADGGTQVIDTKNILIATGSEVTPFPGITIDEDTIVSSTGALSLKKVPEKMVVIGAGVIGVELCSVWQRLGADVTAVEFLGHVGGVGIDMEISKNFQRILQKQGFKFKLNTKVTGATKKSDGKIDVSIEAASGGKAEVITCDVLLVCIGRRPFTKNLGLEELGIELDPRGRIPVNTRFQTKIPNIYAIGDVVAGPMLAHKAEDEGIICVEGMAGGAVHIDYNCVPSVIYTHPEVAWVGKSEEQLKEEGIEYKVGKFPFAANSRAKTNADTDGMVKILGQKSTDRVLGAHILGPGAGEMVNEAALALEYGASCEDIARVCHAHPTLSEAFREANLAASFGKSINF
B4: I358T-hE3 (pathogenic variant of human dihydrolipoamide dehydrogenase) (enzyme, UniProt P09622 36-509, looked up)
chain: ADQPIDADVTVIGSGPGGYVAAIKAAQLGFKTVCIEKNETLGGTCLNVGCIPSKALLNNSHYYHMAHGKDFASRGIEMSEVRLNLDKMMEQKSTAVKALTGGIAHLFKQNKVVHVNGYGKITGKNQVTATKADGGTQVIDTKNILIATGSEVTPFPGITIDEDTIVSSTGALSLKKVPEKMVVIGAGVIGVELGSVWQRLGADVTAVEFLGHVGGVGIDMEISKNFQRILQKQGFKFKLNTKVTGATKKSDGKIDVSIEAASGGKAEVITCDVLLVCIGRRPFTKNLGLEELGIELDPRGRIPVNTRFQTKIPNIYAIGDVVAGPMLAHKAEDEGIICVEGMAGGAVHIDYNCVPSVTYTHPEVAWVGKSEEQLKEEGIEYKVGKFPFAANSRAKTNADTDGMVKILGQKSTDRVLGAHILGPGAGEMVNEAALALEYGASCEDIARVCHAHPTLSEAFREANLAASFGKSINF
B5: K37E-hE3 (pathogenic variant of human dihydrolipoamide dehydrogenase) (enzyme, UniProt P09622 36-509, looked up)
chain: ADQPIDADVTVIGSGPGGYVAAIKAAQLGFKTVCIEENETLGGTCLNVGCIPSKALLNNSHYYHMAHGKDFASRGIEMSEVRLNLDKMMEQKSTAVKALTGGIAHLFKQNKVVHVNGYGKITGKNQVTATKADGGTQVIDTKNILIATGSEVTPFPGITIDEDTIVSSTGALSLKKVPEKMVVIGAGVIGVELGSVWQRLGADVTAVEFLGHVGGVGIDMEISKNFQRILQKQGFKFKLNTKVTGATKKSDGKIDVSIEAASGGKAEVITCDVLLVCIGRRPFTKNLGLEELGIELDPRGRIPVNTRFQTKIPNIYAIGDVVAGPMLAHKAEDEGIICVEGMAGGAVHIDYNCVPSVIYTHPEVAWVGKSEEQLKEEGIEYKVGKFPFAANSRAKTNADTDGMVKILGQKSTDRVLGAHILGPGAGEMVNEAALALEYGASCEDIARVCHAHPTLSEAFREANLAASFGKSINF
B6: I445M-hE3 (pathogenic variant of human dihydrolipoamide dehydrogenase) (enzyme, UniProt P09622 36-509, looked up)
chain: ADQPIDADVTVIGSGPGGYVAAIKAAQLGFKTVCIEKNETLGGTCLNVGCIPSKALLNNSHYYHMAHGKDFASRGIEMSEVRLNLDKMMEQKSTAVKALTGGIAHLFKQNKVVHVNGYGKITGKNQVTATKADGGTQVIDTKNILIATGSEVTPFPGITIDEDTIVSSTGALSLKKVPEKMVVIGAGVIGVELGSVWQRLGADVTAVEFLGHVGGVGIDMEISKNFQRILQKQGFKFKLNTKVTGATKKSDGKIDVSIEAASGGKAEVITCDVLLVCIGRRPFTKNLGLEELGIELDPRGRIPVNTRFQTKIPNIYAIGDVVAGPMLAHKAEDEGIICVEGMAGGAVHIDYNCVPSVIYTHPEVAWVGKSEEQLKEEGIEYKVGKFPFAANSRAKTNADTDGMVKILGQKSTDRVLGAHILGPGAGEMVNEAALALEYGASCEDMARVCHAHPTLSEAFREANLAASFGKSINF
B7: I318T-hE3 (pathogenic variant of human dihydrolipoamide dehydrogenase) (enzyme, UniProt P09622 36-509, looked up)
chain: ADQPIDADVTVIGSGPGGYVAAIKAAQLGFKTVCIEKNETLGGTCLNVGCIPSKALLNNSHYYHMAHGKDFASRGIEMSEVRLNLDKMMEQKSTAVKALTGGIAHLFKQNKVVHVNGYGKITGKNQVTATKADGGTQVIDTKNILIATGSEVTPFPGITIDEDTIVSSTGALSLKKVPEKMVVIGAGVIGVELGSVWQRLGADVTAVEFLGHVGGVGIDMEISKNFQRILQKQGFKFKLNTKVTGATKKSDGKIDVSIEAASGGKAEVITCDVLLVCIGRRPFTKNLGLEELGIELDPRGRIPVNTRFQTKIPNIYATGDVVAGPMLAHKAEDEGIICVEGMAGGAVHIDYNCVPSVIYTHPEVAWVGKSEEQLKEEGIEYKVGKFPFAANSRAKTNADTDGMVKILGQKSTDRVLGAHILGPGAGEMVNEAALALEYGASCEDIARVCHAHPTLSEAFREANLAASFGKSINF
B8: R447G-hE3 (pathogenic variant of human dihydrolipoamide dehydrogenase) (enzyme, UniProt P09622 36-509, looked up)
chain: ADQPIDADVTVIGSGPGGYVAAIKAAQLGFKTVCIEKNETLGGTCLNVGCIPSKALLNNSHYYHMAHGKDFASRGIEMSEVRLNLDKMMEQKSTAVKALTGGIAHLFKQNKVVHVNGYGKITGKNQVTATKADGGTQVIDTKNILIATGSEVTPFPGITIDEDTIVSSTGALSLKKVPEKMVVIGAGVIGVELGSVWQRLGADVTAVEFLGHVGGVGIDMEISKNFQRILQKQGFKFKLNTKVTGATKKSDGKIDVSIEAASGGKAEVITCDVLLVCIGRRPFTKNLGLEELGIELDPRGRIPVNTRFQTKIPNIYAIGDVVAGPMLAHKAEDEGIICVEGMAGGAVHIDYNCVPSVIYTHPEVAWVGKSEEQLKEEGIEYKVGKFPFAANSRAKTNADTDGMVKILGQKSTDRVLGAHILGPGAGEMVNEAALALEYGASCEDIAGVCHAHPTLSEAFREANLAASFGKSINF
B9: D444V-hE3 (pathogenic variant of human dihydrolipoamide dehydrogenase) (enzyme, UniProt P09622 36-509, looked up)
chain: ADQPIDADVTVIGSGPGGYVAAIKAAQLGFKTVCIEKNETLGGTCLNVGCIPSKALLNNSHYYHMAHGKDFASRGIEMSEVRLNLDKMMEQKSTAVKALTGGIAHLFKQNKVVHVNGYGKITGKNQVTATKADGGTQVIDTKNILIATGSEVTPFPGITIDEDTIVSSTGALSLKKVPEKMVVIGAGVIGVELGSVWQRLGADVTAVEFLGHVGGVGIDMEISKNFQRILQKQGFKFKLNTKVTGATKKSDGKIDVSIEAASGGKAEVITCDVLLVCIGRRPFTKNLGLEELGIELDPRGRIPVNTRFQTKIPNIYAIGDVVAGPMLAHKAEDEGIICVEGMAGGAVHIDYNCVPSVIYTHPEVAWVGKSEEQLKEEGIEYKVGKFPFAANSRAKTNADTDGMVKILGQKSTDRVLGAHILGPGAGEMVNEAALALEYGASCEVIARVCHAHPTLSEAFREANLAASFGKSINF
B10: R460G-hE3 (pathogenic variant of human dihydrolipoamide dehydrogenase) (enzyme, UniProt P09622 36-509, looked up)
chain: ADQPIDADVTVIGSGPGGYVAAIKAAQLGFKTVCIEKNETLGGTCLNVGCIPSKALLNNSHYYHMAHGKDFASRGIEMSEVRLNLDKMMEQKSTAVKALTGGIAHLFKQNKVVHVNGYGKITGKNQVTATKADGGTQVIDTKNILIATGSEVTPFPGITIDEDTIVSSTGALSLKKVPEKMVVIGAGVIGVELGSVWQRLGADVTAVEFLGHVGGVGIDMEISKNFQRILQKQGFKFKLNTKVTGATKKSDGKIDVSIEAASGGKAEVITCDVLLVCIGRRPFTKNLGLEELGIELDPRGRIPVNTRFQTKIPNIYAIGDVVAGPMLAHKAEDEGIICVEGMAGGAVHIDYNCVPSVIYTHPEVAWVGKSEEQLKEEGIEYKVGKFPFAANSRAKTNADTDGMVKILGQKSTDRVLGAHILGPGAGEMVNEAALALEYGASCEDIARVCHAHPTLSEAFGEANLAASFGKSINF

Biological target: the molecule itself
Experiment: HDX-MS

Binding result, binds:
B1, B2, B3, B4, B5, B6, B7, B8, B9, B10
